In one data set the target is fusion protein PRMT. To be noted: scale: relative.
The target in data set [1] is motilin fusion protein PMT6D.
The target of data set [2] is motilin fusion protein PMT7D.
Data set [3] concerns the target human calcitonin precursor fusion protein PCT.
The target in data set [4] is human adrenocorticotropic hormone(1-24) fusion protein PAC.
Chain of human adrenocorticotropic hormone(1-24) fusion protein PAC (chain, as listed by the source): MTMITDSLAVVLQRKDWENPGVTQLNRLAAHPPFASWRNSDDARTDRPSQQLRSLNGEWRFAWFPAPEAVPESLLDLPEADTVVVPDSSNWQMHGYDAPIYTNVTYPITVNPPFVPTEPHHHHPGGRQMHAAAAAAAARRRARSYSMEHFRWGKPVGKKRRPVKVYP

Chain of fusion protein PRM (chain, as listed by the source): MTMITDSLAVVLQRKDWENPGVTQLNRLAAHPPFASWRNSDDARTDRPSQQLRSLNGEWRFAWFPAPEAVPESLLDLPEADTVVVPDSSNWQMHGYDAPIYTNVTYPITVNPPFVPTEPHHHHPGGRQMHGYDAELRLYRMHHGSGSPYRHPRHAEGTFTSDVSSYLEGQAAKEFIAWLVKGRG
Chain of fusion protein PRS (chain, as listed by the source): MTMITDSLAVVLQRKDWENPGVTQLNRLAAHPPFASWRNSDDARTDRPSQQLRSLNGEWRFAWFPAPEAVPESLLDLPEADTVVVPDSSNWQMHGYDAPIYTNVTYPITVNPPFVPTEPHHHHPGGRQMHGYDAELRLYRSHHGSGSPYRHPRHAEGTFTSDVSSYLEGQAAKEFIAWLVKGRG
Chain of fusion protein PRC (chain, as listed by the source): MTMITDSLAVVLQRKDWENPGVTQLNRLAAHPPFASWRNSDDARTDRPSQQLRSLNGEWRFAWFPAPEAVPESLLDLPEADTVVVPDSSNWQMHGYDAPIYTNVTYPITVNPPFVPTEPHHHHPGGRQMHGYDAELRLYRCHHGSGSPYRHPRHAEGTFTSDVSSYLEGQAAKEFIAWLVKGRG
Chain of fusion protein PRW (chain, as listed by the source): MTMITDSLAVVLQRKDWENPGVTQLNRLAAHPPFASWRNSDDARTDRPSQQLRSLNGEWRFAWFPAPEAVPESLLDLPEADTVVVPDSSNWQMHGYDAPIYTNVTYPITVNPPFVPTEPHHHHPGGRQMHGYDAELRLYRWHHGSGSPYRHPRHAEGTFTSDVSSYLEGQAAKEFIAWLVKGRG
Chain of fusion protein PRY (chain, as listed by the source): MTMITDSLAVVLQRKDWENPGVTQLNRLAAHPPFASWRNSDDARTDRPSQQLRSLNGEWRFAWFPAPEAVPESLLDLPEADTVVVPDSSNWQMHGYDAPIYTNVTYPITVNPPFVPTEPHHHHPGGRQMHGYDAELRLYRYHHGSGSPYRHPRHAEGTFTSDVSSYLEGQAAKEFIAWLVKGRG
Chain of fusion protein PRI (chain, as listed by the source): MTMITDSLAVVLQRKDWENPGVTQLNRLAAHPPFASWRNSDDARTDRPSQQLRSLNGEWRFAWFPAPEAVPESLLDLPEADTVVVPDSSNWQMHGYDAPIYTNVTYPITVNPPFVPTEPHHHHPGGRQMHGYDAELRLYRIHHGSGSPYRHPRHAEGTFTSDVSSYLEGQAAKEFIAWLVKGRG
Chain of fusion protein PRN (chain, as listed by the source): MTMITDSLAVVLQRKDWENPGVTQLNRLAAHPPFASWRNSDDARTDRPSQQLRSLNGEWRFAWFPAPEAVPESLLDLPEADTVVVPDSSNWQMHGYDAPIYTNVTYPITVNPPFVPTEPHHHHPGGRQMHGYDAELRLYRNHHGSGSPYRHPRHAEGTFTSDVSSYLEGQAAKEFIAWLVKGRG
Chain of fusion protein PRA (chain, as listed by the source): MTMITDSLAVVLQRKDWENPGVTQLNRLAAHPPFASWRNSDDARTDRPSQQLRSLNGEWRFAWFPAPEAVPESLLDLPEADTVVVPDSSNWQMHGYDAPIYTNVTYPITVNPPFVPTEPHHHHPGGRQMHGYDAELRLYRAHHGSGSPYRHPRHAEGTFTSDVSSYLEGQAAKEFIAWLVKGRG
Chain of fusion protein PRK (chain, as listed by the source): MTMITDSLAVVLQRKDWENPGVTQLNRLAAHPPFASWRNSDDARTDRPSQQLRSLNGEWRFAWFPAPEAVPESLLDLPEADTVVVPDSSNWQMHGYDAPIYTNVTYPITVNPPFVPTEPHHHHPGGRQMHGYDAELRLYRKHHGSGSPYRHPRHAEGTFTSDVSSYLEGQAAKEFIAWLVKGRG
Chain of fusion protein PMT (chain, as listed by the source): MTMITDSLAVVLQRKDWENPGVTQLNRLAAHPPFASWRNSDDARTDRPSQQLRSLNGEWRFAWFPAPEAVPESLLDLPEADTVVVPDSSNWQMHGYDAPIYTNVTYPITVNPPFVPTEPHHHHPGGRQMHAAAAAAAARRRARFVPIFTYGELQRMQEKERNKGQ
Chain of motilin fusion protein PMT6D (chain, as listed by the source): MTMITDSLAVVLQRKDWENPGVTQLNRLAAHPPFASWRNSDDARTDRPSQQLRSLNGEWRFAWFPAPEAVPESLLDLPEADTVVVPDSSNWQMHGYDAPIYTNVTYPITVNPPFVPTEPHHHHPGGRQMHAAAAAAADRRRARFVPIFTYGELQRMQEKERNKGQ
Chain of fusion protein PRF (chain, as listed by the source): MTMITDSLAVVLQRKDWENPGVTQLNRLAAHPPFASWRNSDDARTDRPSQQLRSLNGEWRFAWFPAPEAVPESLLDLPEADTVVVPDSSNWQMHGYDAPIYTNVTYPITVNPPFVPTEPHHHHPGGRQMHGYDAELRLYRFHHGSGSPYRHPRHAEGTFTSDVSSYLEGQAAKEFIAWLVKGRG
Chain of fusion protein PRQ (chain, as listed by the source): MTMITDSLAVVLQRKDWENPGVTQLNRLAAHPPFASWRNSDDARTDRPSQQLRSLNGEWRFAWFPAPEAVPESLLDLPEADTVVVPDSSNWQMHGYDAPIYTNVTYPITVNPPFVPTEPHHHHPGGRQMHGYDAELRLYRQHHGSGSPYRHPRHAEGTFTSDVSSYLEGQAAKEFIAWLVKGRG
Chain of fusion protein PRT (chain, as listed by the source): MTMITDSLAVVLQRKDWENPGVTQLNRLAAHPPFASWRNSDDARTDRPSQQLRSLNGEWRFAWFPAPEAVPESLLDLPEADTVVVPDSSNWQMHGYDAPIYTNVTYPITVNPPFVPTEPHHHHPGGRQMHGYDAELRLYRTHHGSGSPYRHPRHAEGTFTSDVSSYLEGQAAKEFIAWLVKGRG
Chain of fusion protein PRH (chain, as listed by the source): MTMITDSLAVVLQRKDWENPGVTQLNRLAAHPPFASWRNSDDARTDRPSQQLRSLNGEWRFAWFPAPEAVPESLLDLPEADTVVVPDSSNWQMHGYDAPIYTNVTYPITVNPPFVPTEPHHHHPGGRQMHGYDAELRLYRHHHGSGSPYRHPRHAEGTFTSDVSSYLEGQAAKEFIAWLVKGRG
Chain of fusion protein PRL (chain, as listed by the source): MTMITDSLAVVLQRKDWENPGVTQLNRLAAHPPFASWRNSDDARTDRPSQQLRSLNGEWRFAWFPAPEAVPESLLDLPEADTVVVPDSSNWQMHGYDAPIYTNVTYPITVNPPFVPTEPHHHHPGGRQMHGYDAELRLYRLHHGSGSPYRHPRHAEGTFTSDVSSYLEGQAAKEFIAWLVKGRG
Chain of fusion protein PRG (chain, as listed by the source): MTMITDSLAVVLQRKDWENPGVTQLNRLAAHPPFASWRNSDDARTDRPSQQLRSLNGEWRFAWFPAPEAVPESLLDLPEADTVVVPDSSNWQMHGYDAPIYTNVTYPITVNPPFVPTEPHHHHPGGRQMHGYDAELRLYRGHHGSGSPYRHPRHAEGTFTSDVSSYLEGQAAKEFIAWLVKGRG
Chain of fusion protein PRR (chain, as listed by the source): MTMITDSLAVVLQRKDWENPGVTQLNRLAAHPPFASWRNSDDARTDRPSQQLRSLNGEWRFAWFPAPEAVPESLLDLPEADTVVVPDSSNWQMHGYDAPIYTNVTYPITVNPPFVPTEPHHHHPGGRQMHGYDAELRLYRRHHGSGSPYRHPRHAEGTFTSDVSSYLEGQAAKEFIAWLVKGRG
Chain of fusion protein PRE (chain, as listed by the source): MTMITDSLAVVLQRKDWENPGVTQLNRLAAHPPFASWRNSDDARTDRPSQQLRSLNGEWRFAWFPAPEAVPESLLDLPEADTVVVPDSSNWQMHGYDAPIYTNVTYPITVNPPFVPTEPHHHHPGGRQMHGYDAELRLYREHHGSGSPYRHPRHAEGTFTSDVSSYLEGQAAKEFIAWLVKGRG
Chain of fusion protein PRD (chain, as listed by the source): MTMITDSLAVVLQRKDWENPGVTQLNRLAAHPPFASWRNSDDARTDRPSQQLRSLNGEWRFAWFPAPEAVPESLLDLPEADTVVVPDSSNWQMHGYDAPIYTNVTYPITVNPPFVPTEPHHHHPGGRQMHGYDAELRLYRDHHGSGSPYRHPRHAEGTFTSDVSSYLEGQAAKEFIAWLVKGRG
Chain of motilin fusion protein PMT7D (chain, as listed by the source): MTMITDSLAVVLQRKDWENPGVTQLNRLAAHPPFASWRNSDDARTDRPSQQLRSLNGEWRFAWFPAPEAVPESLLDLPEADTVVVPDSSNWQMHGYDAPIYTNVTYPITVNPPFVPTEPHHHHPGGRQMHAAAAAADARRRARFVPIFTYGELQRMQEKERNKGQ
Chain of human calcitonin precursor fusion protein PCT (chain, as listed by the source): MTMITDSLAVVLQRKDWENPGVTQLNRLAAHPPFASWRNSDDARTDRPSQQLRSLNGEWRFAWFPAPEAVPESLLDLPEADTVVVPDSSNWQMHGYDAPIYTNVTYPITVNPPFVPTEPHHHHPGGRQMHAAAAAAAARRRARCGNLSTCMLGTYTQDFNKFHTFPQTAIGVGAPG
Chain of fusion protein PRMT (chain, as listed by the source): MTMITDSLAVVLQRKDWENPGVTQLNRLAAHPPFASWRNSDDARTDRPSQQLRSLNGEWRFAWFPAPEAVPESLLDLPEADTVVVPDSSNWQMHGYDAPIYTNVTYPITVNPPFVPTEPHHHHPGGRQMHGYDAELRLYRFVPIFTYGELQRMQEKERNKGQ

B1: OmpT protease variant OmpT D97M (protein)
chain: STETLSFTPDNINADISLGTLSGKTKERVYLAEEGGRKVSQLDWKFNNAAIIKGAINWDLMPQISIGAAGWTTLGSRGGNMVDQDWMDSSNPGTWTMESRHPDTQLNYANEFDLNIKGWLLNEPNYRLGLMAGYQESRYSFTARGGSYIYSSEEGFRDDIGSFPNGERAIGYKQRFKMPYIGLTGSYRYEDFELGGTFKYSGWVESSDNDEHYDPGKRITYRSKVKDQNYYSVAVNAGYYVTPNAKVYVEGAWNRVTNKKGNTSLYDHNNNTSDYSKNGAGIENYNFITTAGLKYTF
In the case of B1, in the data set with fusion protein PMT, the “amount of motilin released, against PRMT” value is listed as “the amount of motilin released from PMT was 3.5 times higher than from PRMT”. The “by-product AR-motilin (motilin = 100)” value with fusion protein PMT was “By-products were yielded at 2.8 and 33% with PMT”; in data set [1], “at 3.5 and 16% with PMT6D”. Further, the “by-product RRAR-motilin (motilin = 100)” value with fusion protein PMT is “By-products were yielded at 2.8 and 33% with PMT”; in [1] it was “at 3.5 and 16% with PMT6D”. The “digestion (SDS-PAGE), co-expressed inclusion bodies” value in the data set with fusion protein PMT is reported as “reaction of 1440 minutes, i.e. 24 hours, caused virtually complete digestion of the fusion protein PMT”. Besides, the motilin released result with fusion protein PMT was “Motilin was released at 280, 250 and 370 µg/mL from the motilin fusion proteins PMT, PMT6D and PMT7D, respectively”; in data set [1] it was “Motilin was released at 280, 250 and 370 µg/mL from the motilin fusion proteins PMT, PMT6D and PMT7D, respectively”; in data set [2], “Motilin was released at 280, 250 and 370 µg/mL from the motilin fusion proteins PMT, PMT6D and PMT7D, respectively”. In the data set with fusion protein PMT (scale: relative), this protein had a relative cleavage efficiency: Motilin (Arg^143-Phe^144) of 78. The relative cleavage efficiency: RRAR-motilin (Arg^139-Arg^140) with fusion protein PMT (scale: relative) stood at 24. The relative cleavage efficiency is 6% with fusion protein PRA; 6.5% in the data set with fusion protein PRC; “less than 3%” with fusion protein PRD; “less than 3%” in the data set with fusion protein PRE; 7.7% with fusion protein PRF; “less than 3%” with fusion protein PRG. In addition, the relative cleavage efficiency result is “less than 3%” in the data set with fusion protein PRH; less than 3% with fusion protein PRI; less than 3% in the data set with fusion protein PRK; “less than 3%” with fusion protein PRL; less than 3% with fusion protein PRM; less than 3% with fusion protein PRN. Moreover, the relative cleavage efficiency result with fusion protein PRP was “less than 3%”; with fusion protein PRQ it was “less than 3%”; with fusion protein PRR it was less than 3%; with fusion protein PRS it was 7.1%; with fusion protein PRT, less than 3%; with fusion protein PRW it was “less than 3%”. The protein also returned a relative cleavage efficiency in the data set with fusion protein PRY of 6.2%. In addition, the relative cleavage efficiency: Motilin (Arg^140-Phe^141) in the data set with fusion protein PRMT is 22. The “by-product RRAR-motilin” value in data set [2] is on record as “no peak for RRAR-motilin was detected with PMT7D”.

B2: OmpT protease variant OmpT D97R (protein)
chain: STETLSFTPDNINADISLGTLSGKTKERVYLAEEGGRKVSQLDWKFNNAAIIKGAINWDLMPQISIGAAGWTTLGSRGGNMVDQDWMDSSNPGTWTRESRHPDTQLNYANEFDLNIKGWLLNEPNYRLGLMAGYQESRYSFTARGGSYIYSSEEGFRDDIGSFPNGERAIGYKQRFKMPYIGLTGSYRYEDFELGGTFKYSGWVESSDNDEHYDPGKRITYRSKVKDQNYYSVAVNAGYYVTPNAKVYVEGAWNRVTNKKGNTSLYDHNNNTSDYSKNGAGIENYNFITTAGLKYTF
Take B2: the relative cleavage efficiency result with fusion protein PRA, with fusion protein PRC, in the data set with fusion protein PRD, with fusion protein PRE, with fusion protein PRF and with fusion protein PRG was “less than 3.0%” throughout. In addition, the relative cleavage efficiency result with fusion protein PRH, with fusion protein PRI, with fusion protein PRK, with fusion protein PRL, in the data set with fusion protein PRM and in the data set with fusion protein PRN was “less than 3.0%” in each case. The relative cleavage efficiency entry with fusion protein PRP, with fusion protein PRQ, with fusion protein PRR, with fusion protein PRS, with fusion protein PRT and with fusion protein PRW was “less than 3.0%” throughout. In addition, in the data set with fusion protein PRY, the relative cleavage efficiency result is “less than 3.0%”.

B3: OmpT protease variant OmpT D97H (protein)
chain: STETLSFTPDNINADISLGTLSGKTKERVYLAEEGGRKVSQLDWKFNNAAIIKGAINWDLMPQISIGAAGWTTLGSRGGNMVDQDWMDSSNPGTWTHESRHPDTQLNYANEFDLNIKGWLLNEPNYRLGLMAGYQESRYSFTARGGSYIYSSEEGFRDDIGSFPNGERAIGYKQRFKMPYIGLTGSYRYEDFELGGTFKYSGWVESSDNDEHYDPGKRITYRSKVKDQNYYSVAVNAGYYVTPNAKVYVEGAWNRVTNKKGNTSLYDHNNNTSDYSKNGAGIENYNFITTAGLKYTF
As for B3, the relative cleavage efficiency with fusion protein PRA was 8.4%; with fusion protein PRC, 11%; with fusion protein PRD it was “less than 3%”; with fusion protein PRE it was “less than 3%”; with fusion protein PRF, 4.1%; in the data set with fusion protein PRG, “less than 3%”. In addition, the relative cleavage efficiency result in the data set with fusion protein PRH is “less than 3%”; in the data set with fusion protein PRI it was 3.1%; in the data set with fusion protein PRK, 4.5%; in the data set with fusion protein PRL, “less than 3%”; with fusion protein PRM, 4.6%; with fusion protein PRN, 3.5%. Moreover, the relative cleavage efficiency entry with fusion protein PRP was “less than 3%”; with fusion protein PRQ, “less than 3%”; in the data set with fusion protein PRR it was 4.6%; with fusion protein PRS, 8.7%; with fusion protein PRT, 3%; with fusion protein PRW, “less than 3%”. The protein further registered a relative cleavage efficiency with fusion protein PRY of less than 3%. The “cleavage (HPLC, mass analysis)” value in data set [3] was “PCT was cleaved at Arg^139-Arg^140. Arg^141-Ala^142 and Arg^143-Cys^144 by D97H, releasing RRAR-CT, AR-CT and human calcitonin precursor”.

B4: OmpT protease variant OmpT D97L (protein)
chain: STETLSFTPDNINADISLGTLSGKTKERVYLAEEGGRKVSQLDWKFNNAAIIKGAINWDLMPQISIGAAGWTTLGSRGGNMVDQDWMDSSNPGTWTLESRHPDTQLNYANEFDLNIKGWLLNEPNYRLGLMAGYQESRYSFTARGGSYIYSSEEGFRDDIGSFPNGERAIGYKQRFKMPYIGLTGSYRYEDFELGGTFKYSGWVESSDNDEHYDPGKRITYRSKVKDQNYYSVAVNAGYYVTPNAKVYVEGAWNRVTNKKGNTSLYDHNNNTSDYSKNGAGIENYNFITTAGLKYTF
As to B4, the relative cleavage efficiency is 7.1% in the data set with fusion protein PRA; 3.9% in the data set with fusion protein PRC; “less than 3%” with fusion protein PRD; “less than 3%” with fusion protein PRE; 4.7% in the data set with fusion protein PRF; “less than 3%” with fusion protein PRG. In addition, the relative cleavage efficiency result with fusion protein PRH was “less than 3%”; with fusion protein PRI, less than 3%; with fusion protein PRK it was less than 3%; with fusion protein PRL it was “less than 3%”; in the data set with fusion protein PRM it was less than 3%; with fusion protein PRN, less than 3%. In addition, the relative cleavage efficiency entry is “less than 3%” in the data set with fusion protein PRP; “less than 3%” with fusion protein PRQ; less than 3% in the data set with fusion protein PRR; 9.1% in the data set with fusion protein PRS; less than 3% with fusion protein PRT; “less than 3%” with fusion protein PRW. Further, the relative cleavage efficiency with fusion protein PRY was 3.2%. Also, the by-products entry in data set [4] was “No by-products were released by cleavage at other sites”. The “release of human adrenocorticotropic hormone(1-24), against wild-type OmpT protease” value in [4] is recorded as “released human adrenocorticotropic hormone(1-24) at 2.9 times compared to wild-type OmpT protease”.

The values are drawn from patent US20070077617.
